± gives the standard deviation of the averaged measurements.
Test system: ATP
Experiment: switch fluorescence ratio, 500 uM ATP over buffer (Cy3 cluster intensity, sum of 5 cycles each) (fold (ratio)); higher = stronger signal-on switching upon ATP binding; sequences stand for … in TCGTCGGCAGCGTCAGATGTGTATAAGAGACAGTTTTTTTTTTTTTTTTTTTTTTTTT…TC
Details: aptamer strand: ATP DNA aptamer (quencher-CACCTGGGGGAGTATTGCGGAGGAAGG + anchor), 100 nM annealed; ATP concentration: 500 uM
Procedure, shortened: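 The quencher-labelled ATP aptamer, at 100 nM, was annealed to Cy3-labelled switching-strand clusters on a modified Illumina MiSeq flow-cell. The clusters were imaged in selection buffer, then after 15 min with 500 uM ATP at 22 °C, and this buffer/ATP cycle ran five times with NaOH stripping and re-annealing between runs. Per-cluster fluorescence ratios, summed target-cycle over summed buffer-cycle Cy3 intensity, were averaged per switch-domain sequence. Clusters outside 100-1000 RFU were excluded.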
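Also: ATP exposure 15 min at 22 °C before imaging.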

Sequence	switch fluorescence ratio
TAGGGAATAG	1.14 ± 0.12
GACGGGATCA	1.02 ± 0.033
TGCCTCGGGG	1.042 ± 0.0049
TATGGCCAAT	1.03 ± 0.03
GTTCCTGGGG	1.03 ± 0.019
TGGAGAAAGG	1.13 ± 0.29
TTCGTTTGGG	0.967 ± 0.047
AGAGGCCATC	0.9831 ± 0.0098
TAGGGACGGC	1.07 ± 0.095
CGTCAGCACT	1.79 ± 0.04
TACACTGATA	1.08 ± 0.043
ATTGTATTTG	1.01 ± 0.034
CCACACGTTT	1.13 ± 0.076
GTGTTTGGCT	0.972 ± 0.024
GTTGTCAGTA	0.9836 ± 0.005
ATATATGGTG	1.05 ± 0.02
TTGTGTTCTT	1.01 ± 0.026
TCAATACGTT	1.09 ± 0.016
ACCACGGTGT	2.12 ± 0.075
TGAATGATCG	1.07 ± 0.032
GGCTTCTTGA	0.966 ± 0.017
TAGGGATAGC	0.985 ± 0.013
CGAGGGTGAG	1.01 ± 0.042
TGTTTATTAG	0.986 ± 0.01
ACCTTCGGGT	1.03 ± 0.028
TTGGGCTATT	1.01 ± 0.015

Sequence	switch fluorescence ratio
ACTAAGAATT	1.02 ± 0.013
TGAGGGCGGG	1.03 ± 0.056
ATGGTCCGGT	0.988 ± 0.015
GATAGTAGC	0.978 ± 0.024
GAAGTTCGAG	0.998 ± 0.016
GGGGCAAAGA	1.02 ± 0.027
GCATTTGGTC	1.01 ± 0.023
TTTCGGGGGG	1.02 ± 0.037
TCGTTCGGGG	1.041 ± 0.0049
CTTGTAATTT	1.02 ± 0.035
AGGACTGTGT	1.02 ± 0.04
ATGCCGGGGG	1 ± 0.021
TGTAGTTGTG	1.02 ± 0.061
AATGAACATG	0.978 ± 0.037
ATGGGCAACT	0.99 ± 0.024
GGAGCTTTGT	0.98 ± 0.015
GACAGTCGGC	0.9669 ± 0.0067
GGGTAGAGGG	0.987 ± 0.049
TTTGCGGGAC	1.57 ± 0.47
GTGGGAAGGT	0.994 ± 0.038
TAAATCGTGC	1.022 ± 0.0064
CCAGGTGGCA	2.83 ± 0.24
ATTGGGGTGG	0.935 ± 0.12
CACACGTACA	1.769 ± 0.01
AATTGGTTAG	0.984 ± 0.054
ATAGAAATTG	1.01 ± 0.035

Sequence	switch fluorescence ratio
ATGGGTTCGC	0.976 ± 0.035
CACATGTGCC	1.01 ± 0.021
CAGGGTGCAT	1.02 ± 0.051
CAAAGGTTAG	1.0209 ± 0.001
GGGACATTGT	0.963 ± 0.03
CTTAGGAGGG	0.997 ± 0.013
ATCGGCGATT	1.04 ± 0.024
GGGGGCCACG	0.984 ± 0.022
AGCGTAGAGC	1.03 ± 0.04
AAAAGGACGT	0.962 ± 0.0056
TTTTGAGAAA	0.99 ± 0.028
ATGTTTAAGC	1.05 ± 0.048
CCTTGGGTTT	1.08 ± 0.13
CATCCTTTAA	1.007 ± 0.0082
TTGTTTTCTG	1.02 ± 0.047
TACGTGGGTA	1 ± 0.0047
CGTGCAAAGG	1.05 ± 0.013
TGCGCCTTAC	3.37 ± 0.38
AAGGTGTTGT	1.04 ± 0.066
TCGTTATTCG	0.979 ± 0.021
CAGTCTATCA	0.972 ± 0.029
GGGATGCGTG	0.991 ± 0.043
ATTATTCGGA	1.008 ± 0.0027
GATAACGTTT	0.99 ± 0.017
TAAGAACGAT	0.987 ± 0.053
TTATTTTTGA	1.07 ± 0.096

Sequence	switch fluorescence ratio
TAAATTGGGG	0.983 ± 0.024
TGATAAAAAT	0.993 ± 0.027
TGCAGGGCGA	1.004 ± 0.0097
AAAGCTGCCA	1.004 ± 0.0056
GAATATAGTG	1.02 ± 0.011
CGGGTAATGT	0.978 ± 0.029
GCCGTAGTCG	1.03 ± 0.042
TTGTTGTGGT	0.987 ± 0.032
TTGCTGATTC	0.9811 ± 0.0067
TTTTTTATTT	0.996 ± 0.025
ACTATTGCCA	1.04 ± 0.017
GGGTAGGGTG	1.04 ± 0.055
TGAGGAGGGC	1.02 ± 0.08
TGTGGTGGGT	1.042 ± 0.0097
TGGGAGAGTC	0.989 ± 0.047
ACGTTATTGG	1.14 ± 0.02
GGTCCAGGGC	1.08 ± 0.04
GTTGCGCACA	1.024 ± 0.0097
ACGCCATAGT	1.25 ± 0.059
TTTTTAGAAA	0.971 ± 0.011
ACAACGCTTG	1.01 ± 0.032
GATAGCAGCG	1.01 ± 0.064
GGCGGGGGGG	1.03 ± 0.048
GGGTGTTTAG	1.01 ± 0.027
GCTTTGTGTA	1.01 ± 0.049
AGATATGGCT	0.979 ± 0.038

Sequence	switch fluorescence ratio
TCGTCGTGTG	1 ± 0.028
AGTGGCATGC	0.985 ± 0.023
CTTGTTAGCG	0.9807 ± 0.0076
AAGTTTATTC	0.967 ± 0.017
GTTGGGGGAC	1.09 ± 0.086
GTTTTTGGTA	0.986 ± 0.021
GAGGCCTTGG	0.983 ± 0.04
TTCAGGATTT	0.994 ± 0.038
AGTTTGTTGC	1 ± 0.012
GCAGTGGGTA	0.978 ± 0.016
TTGAAACTCG	1.063 ± 0.0023
CTTAAACAGC	1.02 ± 0.063
TGTTGGTATA	1.01 ± 0.012
TATTTAGGAG	0.999 ± 0.021
GGACGTCGGA	1.05 ± 0.12
TGTGGTAGAA	0.989 ± 0.023
TTGATGAAGA	1.01 ± 0.036
CTGGGCACGT	0.997 ± 0.023
GGGTGGGGGC	1.02 ± 0.037
AATGGGCTGA	0.971 ± 0.015
TTGATAGAAA	1.01 ± 0.038
CGATGTTTAG	0.986 ± 0.019
TTTATTATGA	1.01 ± 0.026
CAGCTTTTCA	1.024 ± 0.006
GACCACGCTG	1.044 ± 0.0056
GAGGCTGGGG	1 ± 0.038

Sequence	switch fluorescence ratio
AAGAGGGGGG	0.999 ± 0.053
CGTGATTCGC	1.018 ± 0.0023
GTTTTTATAT	1.03 ± 0.015
TAAACACGTG	0.987 ± 0.053
ATTGATTGAT	1.02 ± 0.024
TAGTGGGGCA	0.966 ± 0.033
AGTCTCTGGG	0.974 ± 0.024
TTCGTAGGCA	1.02 ± 0.042
AACACCTCTC	1.1 ± 0.07
TTACAAAATA	1.03 ± 0.048
ACTACACTTT	1.27 ± 0.018
TAGGTCCTTG	0.9851 ± 0.0061
CGAGTCAGA	1.067 ± 0.0096
ACTAATTAGC	1.01 ± 0.031
GGGACTTGGG	0.998 ± 0.037
AAGTTCTTTA	1.02 ± 0.022
TTTTATAAGT	1.03 ± 0.021
GGTGGGTTGG	0.982 ± 0.034
TTTAGTGTCT	0.983 ± 0.021
TGGGGCGCTG	0.981 ± 0.011
TTTCAGGGTT	1.03 ± 0.072
CACTTTTTGG	0.999 ± 0.003
TTTCCTTTTT	1.15 ± 0.36

Reference: the supplement of paper PMC10126150
